The supplement of paper PMC9170038

System: MS2 coat protein
Assay: apparent KD of MS2 coat protein; higher = weaker reporter binding
Conditions: Eterna round: R107
Description: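 RNA-MaP round R107: designed RNA switches with theophylline, tryptophan, arginine or FMN aptamers are transcribed on-chip within common flanks. They are titrated with SNAP-549-labelled MS2 coat protein in RNA-MaP buffer (100 mM Tris pH 7.5, 80 mM KCl, 4 mM MgCl2), without ligand or with the indicated ligand. Median apparent KD per design.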

[1] = input ligand: theophylline 20 uM
[2] = input ligand: theophylline 2 mM
[3] = input ligand: tryptophan 2.4 mM

In the case of “UUGAUCAUAUAUGAAAACAUAUAUGCAGAAGGAGCGUGAUAAAACACAGGUAGGUCGCUGAAGGGAACAUGAGGAUCACCCAUGU [AstrosSSArgA#3]”, the “apparent KD of MS2 coat protein” value (input ligand: arginine 13.2 mM) was 30.2 nM, the “apparent KD of MS2 coat protein” value (input ligand: none) was 27.2 nM and the “apparent KD of MS2 coat protein” value [1] was 39.4 nM. The “apparent KD of MS2 coat protein” value [2] was 34.1 nM and the “apparent KD of MS2 coat protein” value [3] was 26.8 nM.

In the case of “ACGACGCAUACAGAUACCAGUAGCCGAGAAACAUGAGGAUCACCCAUGUCGAGCGACAACUGCCCUUGGCAGCUGUAUGCGUCAG [SSTheo B #12]”, the “apparent KD of MS2 coat protein” value (input ligand: arginine 13.2 mM) was 8.02 nM, the “apparent KD of MS2 coat protein” value [1] was 10.3 nM and the “apparent KD of MS2 coat protein” value [3] was 8.02 nM.

“GCAUCCUAGUCGGCCGCCACUGGUAUGAACACCUUCACCCGUGUGCACAUGAGGAUCACCCAUGUUAGGACCGGGACUAGGAUGC [SSTryp B #20]” was tested, and the “apparent KD of MS2 coat protein” value (input ligand: arginine 13.2 mM) was 10 nM, the “apparent KD of MS2 coat protein” value [1] was 11.2 nM and the “apparent KD of MS2 coat protein” value [2] was 9.67 nM.

For “AGAUUCGACACGGCCGCCACUUGUGGUGGAUUAUCCUAUGUCGAACAUGAGGAUCACCCAUGUACAAGGACCGGGUGUUGAGUCU [XTryp B #21]”, the “apparent KD of MS2 coat protein” value (input ligand: arginine 13.2 mM) was 156 nM, the “apparent KD of MS2 coat protein” value [1] was 365 nM and the “apparent KD of MS2 coat protein” value [2] was 447 nM.

With “CUGGCAGGAUGAUCCGCUGUCAGGGCUGAUACCAGCCACGAAAGUGGCCCUUGGCAGCAGCAAACAUGAGGAUCACCCAUGUAAA [(T)''-(M)'-(T)'-(Theo)-(Ms2)_Design2]” the “apparent KD of MS2 coat protein” value (input ligand: arginine 13.2 mM) was 54.7 nM, the “apparent KD of MS2 coat protein” value [1] was 230 nM and the “apparent KD of MS2 coat protein” value [3] was 108 nM.

In the case of “ACAUGAGGAUCACCCAUGUGCAGAACGGAUACCAGCGUCCUGGUACGCCCUUGGCAGCCGGACAUGAGGAUCACCCAUGUGUGGA [Exclusion Theophylline A GF29]”, the “apparent KD of MS2 coat protein” value (input ligand: arginine 13.2 mM) was 56 nM, the “apparent KD of MS2 coat protein” value [1] was 161 nM and the “apparent KD of MS2 coat protein” value [3] was 105 nM.

“ACCUACACGGAGACGUGUAGGAGUAAUGAUACCAGCAUGGAGACAUGCCCUUGGCAGCGUUACAUGAGGAUCACCCAUGUGGUGC [ETHA #6]” was tested, and the “apparent KD of MS2 coat protein” value (input ligand: arginine 13.2 mM) was 19.1 nM, the “apparent KD of MS2 coat protein” value [1] was 37.4 nM and the “apparent KD of MS2 coat protein” value [3] was 21.6 nM.

In the case of “UUGUUGUACGGAAGGAGCGUGUAAGAUUAAGAACAUGAGGAUCACCCAUGUUUUAAGGGAACACAGGUAGGUCGCCGUGUGGUGG [11.Q]”, the “apparent KD of MS2 coat protein” value (input ligand: arginine 13.2 mM) was 14 nM, the “apparent KD of MS2 coat protein” value (input ligand: none) was 15.1 nM and the “apparent KD of MS2 coat protein” value [1] was 20 nM. For the same sequence, the “apparent KD of MS2 coat protein” value [2] was 16.4 nM and the “apparent KD of MS2 coat protein” value [3] was 16.2 nM.

For “GGAUAGGACAGAAGGAGCGUGAGAUGCAUACCUUCAUUCCUCACAUGAGGAUCACCCAUGUCACAGGUAGGUCGCUGUCCUAUCG [#20 Exclusion - Arginine B]”, the “apparent KD of MS2 coat protein” value (input ligand: arginine 13.2 mM) was 64.8 nM, the “apparent KD of MS2 coat protein” value (input ligand: none) was 93.5 nM and the “apparent KD of MS2 coat protein” value [1] was 108 nM. For the same sequence, the “apparent KD of MS2 coat protein” value [2] was 96.5 nM and the “apparent KD of MS2 coat protein” value [3] was 90.7 nM.

In the case of “UUCAGACAUGAGGAUCACCCAUGUACUGAAGGAGCGGAUAAAUAUCCAGGUAGGUCGCAGUAUUGAGGGUCUACUUCCAGUCUUU [Reoruser]”, the “apparent KD of MS2 coat protein” value (input ligand: arginine 13.2 mM) was 8.42 nM, the “apparent KD of MS2 coat protein” value (input ligand: none) was 9.48 nM and the “apparent KD of MS2 coat protein” value [1] was 11.9 nM. The “apparent KD of MS2 coat protein” value [2] was 9.47 nM and the “apparent KD of MS2 coat protein” value [3] was 9.82 nM.

With “UACAUACAUGAGGAUCACCCAUGUUGCGAUACCAGCGAAAGAGACCGCCCUUGGCAGCGCUCAUUUAGUUCCAUUCUUGAUCGAA [theeternabot_sameState_MS2_Theo_A_4]” the “apparent KD of MS2 coat protein” value (input ligand: arginine 13.2 mM) was 14.5 nM, the “apparent KD of MS2 coat protein” value [1] was 23.7 nM and the “apparent KD of MS2 coat protein” value [3] was 14.7 nM.

With “AGUGUAUCCAUCGAUACCAGCCACAACGUAACAUACACAUGAGGAUCACCCAUGUUGUGUGGCCCUUGGCAGCGGUGCCUGUGUA [Same State - Theophylline B Attempt #1 (HarryS)]” the “apparent KD of MS2 coat protein” value (input ligand: arginine 13.2 mM) was 14.4 nM, the “apparent KD of MS2 coat protein” value [1] was 16.4 nM and the “apparent KD of MS2 coat protein” value [3] was 13.9 nM.

With “UUCAGCUAGUCGGCCGCCACUACAUGAGGAUCACCCAUGUAAUCCUAACACUGCUUCGGCAGUGGUAGGACCGGGACUAGCUGAG” the “apparent KD of MS2 coat protein” value (input ligand: arginine 13.2 mM) was 11.1 nM, the “apparent KD of MS2 coat protein” value [1] was 14.3 nM and the “apparent KD of MS2 coat protein” value [2] was 12.2 nM.

In the case of “UCGACAGUGAACGAUACCAGCGUCACGUGGCCGGUGGUCACAUGAGGAUCACCCAUGUAACGCCCUUGGCAGCGUGCACGUAUCC [Berisoor]”, the “apparent KD of MS2 coat protein” value (input ligand: arginine 13.2 mM) was 17.5 nM, the “apparent KD of MS2 coat protein” value [1] was 78 nM and the “apparent KD of MS2 coat protein” value [3] was 25.5 nM.

For “UGUAACAUGAGGAUCACCCAUGUGAGUGAUACCAGAUAAGUAGUAGUCCCUUGGCAGCAUAUUGGGCGAGUGUAUAGUCUAUGCG [Same State - Theophylline A (Freestyle 9)]”, the “apparent KD of MS2 coat protein” value (input ligand: arginine 13.2 mM) was 125 nM, the “apparent KD of MS2 coat protein” value [1] was 207 nM and the “apparent KD of MS2 coat protein” value [3] was 152 nM.
